The target in test [1] is T1, Human Fas (CD95) on the cell surface (human, UniProt P25445 26-335).
T1 sequence: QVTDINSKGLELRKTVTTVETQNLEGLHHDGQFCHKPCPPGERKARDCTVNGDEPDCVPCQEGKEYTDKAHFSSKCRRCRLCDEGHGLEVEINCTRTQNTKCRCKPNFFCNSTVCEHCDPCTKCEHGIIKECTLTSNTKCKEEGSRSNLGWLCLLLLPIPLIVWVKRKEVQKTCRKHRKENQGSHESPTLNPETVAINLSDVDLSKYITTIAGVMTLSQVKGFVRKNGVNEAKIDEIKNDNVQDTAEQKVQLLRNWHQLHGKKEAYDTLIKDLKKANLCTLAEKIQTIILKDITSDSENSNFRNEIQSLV
The experiment in a line: cell-based or functional assay.

For test [2], the target named is T1, Human Fas (CD95) on the cell surface. The experiment in a line: flow cytometry on Jurkat cells, FITC anti-human IgG secondary, geometric MFI after background subtraction. The procedure: (§1) Binding of F45D9-γ1 and F45D9-γ4 to the surface of Fas expressing Jurkat and SKW6.4 cells (from ATCC, Jurkat, clone E6-1, ATCC-TIB-152, Human T Leukemia cell line); SKW6.4 cells, ATCC-TIB-215, Human B lymphoblastoid cell line) was explored by immunofluorescence staining and flow cytometry analysis. Cells were cultured in RPMI 1640 medium (GIBCO, Cat. 3105205) supplemented with 2 mM glutamax (GIBCO), 100 UI/mL penicillin, 100 μg/mL streptomycin (Sigma) and 5-10% fetal bovine serum (GIBCO), at 37° C. and 5% CO₂. After washing in PBS Jurkat or SKW6.4 cells (0.2×10⁶ cells/well) were incubated in staining buffer (PBS/1% FBS) containing F45D9-γ1, F45D9-γ4 or human IgG control antibodies (Human IgG1, kappa, Sigma, Cat. I5154 or Human IgG4, kappa, Sigma, Cat. I4639) in a 96-well U-bottom plate for 30 min on ice, in a 100 ul/well volume. Cells were then washed once with staining buffer, and further incubated for 30 min on ice with 1:30 dilution of FITC-conjugated rabbit F(ab′)₂ anti-human IgG (DakoCytomation Cat. F0056). After washing and fixing with 1% formaldehyde in PBS cells were analyzed in a FACScan (Becton Dickinson, Mountain View, Calif.). The reactivity of F45D9-γ1 and F45D9-γ4 to the surface of Jurkat cells was quantified and Geometric Mean Fluorescence Intensity (MFI) after background subtraction (FIG. 1A) and histograms (FIG. 1B) are shown. […]

The target is the same in test [3]. As to the kind of experiment: flow cytometry on SKW6.4 cells, FITC anti-human IgG secondary, geometric MFI after background subtraction. The method, then:
as §1
(In general: Flow cytometry measures light scatter and fluorescence of single cells or particles in a stream.)

For test [4], the target named is T2, Common marmoset Fas on the cell surface (common marmoset (Callithrix jacchus)).
T2 construct: whole, on cells
As to the kind of experiment: flow cytometry on the marmoset B cell line 9505, FITC anti-human IgG secondary, MFI after subtraction of the control human γ1 staining. The text has this:
(§2) Reactivity of F45D9-γ1 or F45D9-γ4 mAb with Fas molecules of various species was initially screened using primary blood cells or lymphocytes cell lines. The binding of F45D9-γ1 or F45D9-γ4 mAb was explored by immunofluoresce staining and flow cytometry analysis, in human PBMC, purified human resting T cells, activated human T cells, peripheral blood lymphocytes (PBL) derived from BALE/c mice, rat, dog and pig, and in B cell lines or PBL derived from common marmoset, cynomolgus macaque, olive baboon, rhesus macaque and chimpanzee. Resting and activated human T cells were prepared as described in Example 7. B cells lines from monkeys were obtained from Biomedical Primate Research Center (Rijswijk, The Netherlands), and were cultured in RPMI 1640 medium supplemented with 2 mM glutamax, 100 UI/mL penicillin, 100 μg/mL streptomycin and 10% fetal bovine serum, at 37° C. and 5% CO₂. After washing in PBS cells (0.2−0.4×10⁶ cells/well) were incubated in staining buffer (PBS/1% FBS) containing F45D9-γ1 or human IgG control antibodies (10-20 ug/ml) in a 96-well U-bottom plate for 30 min on ice, in a 100 ul/well volume. Cells were then washed once with staining buffer, and further incubated for 30 min on ice with 1:30 dilution of FITC-conjugated rabbit F(ab′)₂ anti-human kappa (DakoCytomation Cat. F0434) or FITC-conjugated rabbit F(ab′)₂ anti-human IgG (DakoCytomation Cat. F0056). […]

Test [5] deals with T2, Common marmoset Fas on the cell surface. As to the kind of experiment: flow cytometry on the marmoset B cell line 9601, FITC anti-human IgG secondary, MFI after subtraction of the control human γ1 staining.
Text: as §2

B1: F45D9-γ1 mAb (recombinant human mAb T17/B2-1G4, gamma-1 isotype) (antibody, V domains shown)
VH: QVQLQQWGAGLLKPSETLSLICAVYGGSFSTYYWTWIRQPPGKGLEWIGEINHRGTTNYSPSLKSRVTISVDTSKNHISLNLTSVTAADTALYYCARGLLWIGEGDYGLDVWGQGTTVTVSS
VL: DIQMTQSPSSLSASVGDRVTITCRASQGIRRWLAWYQQKPEKAPKSLIYAASSLQSGVPSRFSGSGSGTDFTLTISSLQPEDFATYYCQQYNSYPYTFGQGTKLEIKR
notes: Whole human IgG1 (γ1fa allotype) with human kappa light chain, made in CHO DG44 cells; also called IgG1; T17/L18/B2-1G4
As usually defined, the EC50 (read off the curve) is the concentration that produces a half-maximal response. Low readings indicate a more potent agent, high ones a less potent agent. Consider B1, for which the “IC50 of inhibition of rhFasL-induced apoptosis in SKW6.4 cells (Annexin-V/PI, flow cytometry)” value in test [1] turned out to be 200 pM. Also, the “IC50 of inhibition of rhFasL-induced apoptosis in activated human T cells (Annexin-V/PI, flow cytometry)” value in test [1] is 20 pM. Also, the “share of binding capacity on Jurkat cells at which complete blocking of FasL-induced apoptosis is achieved” value in test [1] is at least 12.5%. The “EC50 (read off the curve)” value in test [2] was around 0.5 µg/mL; in test [3] it was around 0.4 µg/mL; in test [4], around 2 µg/mL; in test [5], around 1 µg/mL.

(Values after patent US20100233157A1 (published 2010).)
